# According to the domain aggregation screens of Martell et al. (2025):
# Test: soluble fraction after stress (log2 fold change); higher = more stays soluble; pooled small domains, quantitative proteomics
# Settings: stress: 75 degC
# 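Further: 20 min heating vs room temperature control held 20 min.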
row,Sequence,soluble fraction (log2)
1,HMGYDVAEVKFRLIKLLRDSKIGISGVEISERLGINRVTMTKYLNIFSAEGVIGEKNIGNVNLWFVYEGIE,-1.62
2,HMGYQLSLEAQSQLKALGLTSEYITRILDEADNRQPIPGTSRTVYSLNGYQVEFSHSDQQVIRIARG,-1.14
3,HMGYSDEIGEFIKKLRTENHLTQKEFADKYGVTYQAVSKWENGKNLPDMSLIKQMSEDFNIGIDELLDGEK,-0.00865
4,HMGYTLDVAHGVTEDMNFSEAFATAREEVGPGGIFYWHGKPYGTYYENEWNAMDEEDKAEYWDAVGRTTA,0.0888
5,HMHANSDVEQLMQMGIQRLNFQRYSDALLIFNQIIENFPDYAEAWNKRATLHYLLGNLDKSIADIEQTLE,-2.45
6,HMHAPIAELKKVFKEEFADQEVTVRQLAGSVLLSGNVKTAELRENLESVAKQFFPRVINNLKLI,-0.444
7,HMHDAKAEIIRLSALLTEYQRSYYIDGHSQVSDLEYDRLFDRLVALETSHPELREADSPTQRV,-0.917
8,HMHDAKTQLQEEAARRGLPAPVYTRIGQEGPDHAPRFRVRADVGPHQAEAVAGSLKLAQAEAARAILRQMP,0.132
9,HMHDITPAVAETFKQLRAERGLSLSQAAQLTGVSKAMLGQIERGQSSPTVSTLWKIATGFNVAFSVFL,-2.56
10,HMHDLGEQIIEKLRASGGISTLTDKSDPDAIYRQFKVSKKKYKQALGTLYKSRRITLAPNQIKLA,-0.293
11,HMHDPLATLTPREHEVMSLMAEGRTNAAIAQALVIGTGAVEKNVTSIFQKLGLDDSGTDHRRVLAVLAWLQ,-2.13
12,HMHDRRSGKVKWYSDRKGYGFIDLDGGEVFIHRSALIAFGALRLQAEDIITITVRETDRGLVVDQLFGIER,-1.66
13,HMHEAILNQIRNEELMLYIGELSDAQQDVILLKYFHQMTFKEIAESFSIPISTVKTRHTAALKKLSTLWK,-0.36
14,HMHESLAEVAARKLRALIVTGELAPGERVTEAGLTDLLEISRTPAREAIRILSSEGLLVVFPNRGAEVV,-0.94
15,HMHEYSDIEHRILDAAREVFIRKGYDSATMGDIALLAGMSRTSVNYYFRNKERLFEAIFEEII,-1.91
16,HMHFDQILAHAMDERGMNAVQLASLTGLSSGAISRYLAGDRQPTVYSIQQIAKALGVSADYLVG,-1.19
17,HMHGEAEFLDATAVVMEKLNPGGLVKIKGEIWQAVSKDGHTIQEGEKVRVFERQGITLLVGHF,-0.876
18,HMHGTIHSAAYGGDIEAVKKFLAAGADVNANGGGRTPLDLAIQVKNTEIADLLRKHGGKTGDELKA,0.547
19,HMHGYLSDPAARLIRARRKTLSIRITQEGNLEIRAPLGMPKGEIEAFLKEKAQWIETHRAKVLAEYA,-2.84
20,HMHHDQQQITAELARIARNGLPGLTADNAIISRLDALNLLINIHDDRGADATPLRGLLPAIADELLRLT,0.056
21,HMHHIDTAWFRGKMREHRLTQEAVGQAIGLERSMVSKIIKGTVSFNARKASAWAQLLRVSESEILERVGI,-2.58
22,HMHHIDYKQLRRINPVAARRAVLDYLESTGGNITKTAQVFSINRSVVYDILKKQASGDLSDRLRIP,-2.04
23,HMHIDQVIRERRLALGLTQEELANKIGVSAPAVSKWEKRVSYPDITLLPALARILGTDVNTLLTFS,-1.08
24,HMHIVQEGDSLYGIARQYRITVEELRSLNALETADVIVPYQKLYV,-0.851
25,HMHKPLRILVYEELRMLIMTGQIKPGTRMMEIDLAESMGVSRTPVREAIRQLEKDNLVTIEPRRGAYVSD,-2.71

row,Sequence,soluble fraction (log2)
1,HMHKYQVGETVYYTSPTFGRAAATGSYIVVKLLPSEGDDYQYRIKSSGEAFERVAKESQLDR,-0.57
2,HMHLIPRESTYEIDGRRFVVDSVNLDFGKVSLQDITFRNATGFPIFRSESIEFMRRLVEISEAQRIAEL,-0.0447
3,HMHLPDNAVSIISELKMTPEEVLELIGKLPHDFLFLPYSQRKKIIVDLIPNKDYKLLMSLIKKFML,-1.62
4,HMHLTRYQYKVETEQEAVGLKELSSVHDLQIKENEATFQADSDAIDEILKTLLLYGVKKLEATPPTLED,-0.211
5,HMHMSLTEKYKELTDLAVSAGVQNLNVREQDGVLYVDGDASGAVKQQLWDTYGKLDPDYTSGDLVLNI,0.279
6,HMHNSPSPVATTILRFLQPVRAFVGDTEDMRTFGPFLREDVAMVPASQAKNLIRSGHAVEINP,-0.0107
7,HMHNSQTIIDNIKRIANEQNISLSKLAVISGLGKNTITSMTAKTNIKIETLTAIAKSLNVSIHDLTGE,-2.64
8,HMHPDHRTATVPDAAAGRRFDAVLAELFPQFSRSKLTTWIKSGEVLLNGEVPRPRDAVVGGETVSLNVVL,-0.554
9,HMHPMVEAYLADLDRALSGSDPREHAETMSAVREHLADAIAPDATAEQVRHALDELGPVEAIAAG,0.0321
10,HMHPQISVEGVLPLKEAVEFVEREIISHAYSRYRATREVARHLGIDPSTVLRKAAKYGITVEPGKN,-1.07
11,HMHPRDREENKYLLLRGERIYEESIGEKRLYVEAALHKYEKALSSYDTGLIDEAKEEFKKFLEEIEEA,-0.271
12,HMHPVEPDDPDQHILFQHLRGQDQVHIDALIRLSGWTADKVSSTLLFMELQGLVKQLPGMYYALE,-0.806
13,HMHQAADFAGFITFNKDGVEQFSFGKYKNQTVVSVLEKDPGYYSWIQNADFPLYTKKILTAIRLAM,-1.06
14,HMHQALLEQSAEHAQQVKAYELLLTAERALDEENTEAFLSAMKSLKPLAENLDAKGKALYQELLPFVTEA,0.485
15,HMHQAVTVTKPARLFTGPDGKGVVRSLDVGMMLYPTGEKQGMMWEVEDELGNKGWVSSTLLELS,0.0637
16,HMHSEEAALLHRYIDSLEEPQHTVVVMRDIGGYSFEEIASVVQLKEAHIWMILSRARRKLRELYIKTMDHH,0.0533
17,HMHSFFGDNIKKLRTAKKMSQEQLADIFGITKAGISYWETGRSEPNFATVQKLADFFGVTTSDLLGEA,-0.43
18,HMHSFGLHVRNLRKKSNLTLSQLSNASGLSLSAISKIENNQISPSFINLIRLAEGLKMHIADLVTVK,-2.2
19,HMHSGFHSAILDVDRAVKEGKTLYEALNKYPYIFDETFRSLVRAGEASGELPSILSKLALYLEEQSK,-2.04
20,HMHSLLDDIPNVGEKRKRILLTHFQSLEEIKAATVEELERLPQINRKAAESIYTFFHSQPIR,-0.735
21,HMHSRLEDIPGIGPRRRAMLLRHFGGLAELKAAGVEEIARVEGINMALAQRLWRALHGVPDPT,-0.641
22,HMHSVIALTIPADYAGLRLDQALAKLLPNWSRSRLQTWIAENRVILDGQITTIKQKVWGNELIQISPQD,-1.67
23,HMHTDQVLVMTRAVGQGEIVRNTDVGLTSVAVDRAVTTIPASQLDEIVGRHALVDLSAGQLLGSHSVGA,0.109
24,HMHTNNALWAIADDMRARKDDGEFDTYREGYKWAANNIVKEGIHITAIKLEKAYHKAKSEGKV,-0.139
25,HMHVSIAENIRRIRTQHDMTQEEFGKVAAVSAMAVSQWENGRAVPRMGAVQRIADYFNISKGEVID,-0.699
